Source: PMC10777020, “The N1 domain of the peroxisomal AAA-ATPase Pex6 is required for Pex15 binding and proper assembly with Pex1” (The Journal of Biological Chemistry, 2023)

Columns and labels:
Pex1/ΔN1-Pex6 = molecular target: T1, Pex1/ΔN1-Pex6 (Saccharomyces cerevisiae, UniProt P24004+P33760); test: enzyme-coupled ATPase assay; assay type: biochemical; conditions: 5 mM ATP, 30 °C
T1 construct: Pex1 with C-terminal FLAG; Pex6 lacking first 184 residues (N1 domain) with N-terminal His tag; heterohexamer
T1 sequence (P24004 1-1043): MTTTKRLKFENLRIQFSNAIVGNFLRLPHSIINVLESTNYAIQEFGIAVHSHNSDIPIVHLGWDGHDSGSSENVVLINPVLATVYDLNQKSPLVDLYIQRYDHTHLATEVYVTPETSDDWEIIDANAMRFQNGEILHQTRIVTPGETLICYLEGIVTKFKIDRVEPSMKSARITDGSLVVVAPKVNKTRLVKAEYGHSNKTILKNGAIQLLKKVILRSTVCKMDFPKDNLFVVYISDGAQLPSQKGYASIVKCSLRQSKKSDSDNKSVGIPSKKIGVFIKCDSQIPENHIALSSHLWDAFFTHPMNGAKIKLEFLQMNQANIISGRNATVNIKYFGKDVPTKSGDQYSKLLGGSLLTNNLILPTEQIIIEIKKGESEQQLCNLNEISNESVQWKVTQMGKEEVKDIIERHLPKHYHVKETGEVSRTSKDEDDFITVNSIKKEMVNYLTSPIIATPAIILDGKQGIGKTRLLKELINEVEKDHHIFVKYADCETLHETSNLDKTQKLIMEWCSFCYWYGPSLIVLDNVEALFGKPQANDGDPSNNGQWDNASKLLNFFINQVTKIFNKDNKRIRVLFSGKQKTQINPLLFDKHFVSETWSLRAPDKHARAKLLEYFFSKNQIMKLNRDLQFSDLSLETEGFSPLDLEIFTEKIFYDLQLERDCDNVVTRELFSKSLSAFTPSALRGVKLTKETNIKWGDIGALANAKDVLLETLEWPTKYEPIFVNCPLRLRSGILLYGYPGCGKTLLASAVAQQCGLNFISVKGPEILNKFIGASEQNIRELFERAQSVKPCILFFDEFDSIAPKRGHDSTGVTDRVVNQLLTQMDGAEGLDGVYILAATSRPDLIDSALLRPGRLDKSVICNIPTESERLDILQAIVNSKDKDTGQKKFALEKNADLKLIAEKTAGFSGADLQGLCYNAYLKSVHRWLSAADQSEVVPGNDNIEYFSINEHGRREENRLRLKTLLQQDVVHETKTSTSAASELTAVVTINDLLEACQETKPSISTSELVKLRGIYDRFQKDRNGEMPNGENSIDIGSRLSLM
T1 sequence (P33760 185-1030): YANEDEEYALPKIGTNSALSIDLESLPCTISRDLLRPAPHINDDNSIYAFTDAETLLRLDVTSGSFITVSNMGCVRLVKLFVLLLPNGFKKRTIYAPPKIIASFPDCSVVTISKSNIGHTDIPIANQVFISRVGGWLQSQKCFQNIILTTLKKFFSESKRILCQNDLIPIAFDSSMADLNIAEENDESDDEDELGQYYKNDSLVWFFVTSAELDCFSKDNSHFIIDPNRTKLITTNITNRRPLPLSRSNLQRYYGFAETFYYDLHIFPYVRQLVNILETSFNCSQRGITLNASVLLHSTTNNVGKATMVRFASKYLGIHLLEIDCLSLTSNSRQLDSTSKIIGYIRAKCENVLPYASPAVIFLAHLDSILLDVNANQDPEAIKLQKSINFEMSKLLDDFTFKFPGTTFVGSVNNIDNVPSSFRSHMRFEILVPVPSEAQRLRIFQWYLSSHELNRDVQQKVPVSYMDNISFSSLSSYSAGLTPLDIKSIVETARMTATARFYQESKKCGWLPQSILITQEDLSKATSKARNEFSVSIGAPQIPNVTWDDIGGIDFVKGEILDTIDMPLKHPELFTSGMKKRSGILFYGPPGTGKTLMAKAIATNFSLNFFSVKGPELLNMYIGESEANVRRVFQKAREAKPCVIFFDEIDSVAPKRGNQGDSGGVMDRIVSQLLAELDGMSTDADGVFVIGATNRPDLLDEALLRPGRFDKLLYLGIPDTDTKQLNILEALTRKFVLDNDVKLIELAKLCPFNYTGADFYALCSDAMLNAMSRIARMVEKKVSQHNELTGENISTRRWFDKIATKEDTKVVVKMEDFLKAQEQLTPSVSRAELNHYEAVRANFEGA

[1] = molecular target: T2, Pex1/Pex6 (Pex1-FLAG/His-Pex6) (Saccharomyces cerevisiae, UniProt P24004+P33760); test: cryo-EM structure, ~[…] Å D1, ~[…]-9 Å D2; assay type: binding; conditions: 1 mM ATP, pH 7.6, 10 mM MgCl2, with mEOS3.2-Pex15 1-309 (no substrate density in pore); ATP modelled in all D1 sites and four D2 sites
T2 construct: heterohexamer of alternating Pex1 and Pex6
T2 sequence (P24004 1-1043): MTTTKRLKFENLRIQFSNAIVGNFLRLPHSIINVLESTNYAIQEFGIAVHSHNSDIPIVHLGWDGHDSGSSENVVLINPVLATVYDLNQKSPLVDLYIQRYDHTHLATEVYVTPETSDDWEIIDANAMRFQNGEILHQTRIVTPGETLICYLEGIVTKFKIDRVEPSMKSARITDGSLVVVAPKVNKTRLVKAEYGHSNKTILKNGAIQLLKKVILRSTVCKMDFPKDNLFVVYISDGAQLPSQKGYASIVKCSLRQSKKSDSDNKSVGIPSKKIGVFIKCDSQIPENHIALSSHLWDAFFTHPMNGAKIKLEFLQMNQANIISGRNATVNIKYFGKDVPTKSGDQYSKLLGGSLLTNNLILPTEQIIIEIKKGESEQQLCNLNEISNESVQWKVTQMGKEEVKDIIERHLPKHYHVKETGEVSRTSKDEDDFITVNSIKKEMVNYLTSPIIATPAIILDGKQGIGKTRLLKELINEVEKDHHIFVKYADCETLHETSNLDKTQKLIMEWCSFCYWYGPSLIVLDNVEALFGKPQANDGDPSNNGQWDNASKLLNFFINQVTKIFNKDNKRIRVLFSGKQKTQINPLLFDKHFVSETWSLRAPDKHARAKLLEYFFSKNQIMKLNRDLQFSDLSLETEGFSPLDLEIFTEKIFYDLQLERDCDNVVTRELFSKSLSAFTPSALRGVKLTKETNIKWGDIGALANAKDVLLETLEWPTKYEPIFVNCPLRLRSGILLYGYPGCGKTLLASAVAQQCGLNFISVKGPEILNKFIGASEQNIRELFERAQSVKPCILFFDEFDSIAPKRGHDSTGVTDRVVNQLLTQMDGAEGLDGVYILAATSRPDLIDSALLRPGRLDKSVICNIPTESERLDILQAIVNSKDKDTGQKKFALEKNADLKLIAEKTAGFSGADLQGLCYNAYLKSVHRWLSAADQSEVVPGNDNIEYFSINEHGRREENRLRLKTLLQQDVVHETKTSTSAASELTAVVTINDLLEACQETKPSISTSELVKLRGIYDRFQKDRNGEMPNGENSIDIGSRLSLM
T2 sequence (P33760 1-1030): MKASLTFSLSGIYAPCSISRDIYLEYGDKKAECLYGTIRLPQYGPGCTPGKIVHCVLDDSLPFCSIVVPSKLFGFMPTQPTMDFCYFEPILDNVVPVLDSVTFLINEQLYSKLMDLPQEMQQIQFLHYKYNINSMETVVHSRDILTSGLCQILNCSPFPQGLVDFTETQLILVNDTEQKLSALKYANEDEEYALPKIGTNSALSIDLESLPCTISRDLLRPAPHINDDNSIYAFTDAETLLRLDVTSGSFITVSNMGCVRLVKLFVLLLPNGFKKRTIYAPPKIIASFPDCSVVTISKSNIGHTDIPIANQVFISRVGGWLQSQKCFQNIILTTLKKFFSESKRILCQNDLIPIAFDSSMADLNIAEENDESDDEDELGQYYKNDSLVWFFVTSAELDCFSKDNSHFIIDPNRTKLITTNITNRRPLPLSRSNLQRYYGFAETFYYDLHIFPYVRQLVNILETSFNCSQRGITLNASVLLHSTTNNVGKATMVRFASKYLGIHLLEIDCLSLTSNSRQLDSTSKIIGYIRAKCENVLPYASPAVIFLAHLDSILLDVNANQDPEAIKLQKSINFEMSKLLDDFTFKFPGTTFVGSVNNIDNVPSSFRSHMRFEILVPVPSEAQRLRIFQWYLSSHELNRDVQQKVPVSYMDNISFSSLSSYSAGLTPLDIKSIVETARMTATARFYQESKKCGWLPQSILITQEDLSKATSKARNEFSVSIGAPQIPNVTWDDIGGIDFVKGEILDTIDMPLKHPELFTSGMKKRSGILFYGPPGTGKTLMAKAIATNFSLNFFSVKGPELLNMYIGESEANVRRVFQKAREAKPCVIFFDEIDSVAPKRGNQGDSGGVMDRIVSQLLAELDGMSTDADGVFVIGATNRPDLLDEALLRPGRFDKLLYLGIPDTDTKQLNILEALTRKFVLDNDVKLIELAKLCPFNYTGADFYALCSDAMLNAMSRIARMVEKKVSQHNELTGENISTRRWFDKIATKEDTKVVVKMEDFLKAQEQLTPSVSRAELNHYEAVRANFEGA

[2] = tested on: T3, Nc1ncnc2c1ncn2[C@@H]1O[C@H](COP(=O)(O)OP(=O)(O)OP(=O)(O)O)[C@@H](O)[C@H]1O; test: purified protein; assay type: biochemical, Saccharomyces cerevisiae; conditions: 30 °C, ATP varied, hydrolysis in D2 ring
T3 construct: heterohexamer of alternating Pex1 and Pex6

His-Pex6 = molecular target: T4, His-Pex6 (S. cerevisiae, UniProt P33760 1-1030); test: cross-linking; photocrosslinking by AzF in Pex1 as above, in the absence or presence of 10 uM Pex15 1-309, Pex15 1-266 or Pex15 43-309; His-Pex6 stood in the complex with the Pex1 variant; conditions: both partners purified
T4 construct: Pex6, AAA-ATPase of S. cerevisiae; no limits stated for the construct; In all experiments it stood in a complex with Pex1-FLAG or a Pex1 variant; also called ScPex6; His-tagged Pex6; source: E. coli BL21*(DE3), co-expressed with Pex1-FLAG or its variants; in lysate, then purified (Ni-NTA, anti-FLAG, Superose6 Increase); not shown: His, N-terminal, kept
T4 sequence: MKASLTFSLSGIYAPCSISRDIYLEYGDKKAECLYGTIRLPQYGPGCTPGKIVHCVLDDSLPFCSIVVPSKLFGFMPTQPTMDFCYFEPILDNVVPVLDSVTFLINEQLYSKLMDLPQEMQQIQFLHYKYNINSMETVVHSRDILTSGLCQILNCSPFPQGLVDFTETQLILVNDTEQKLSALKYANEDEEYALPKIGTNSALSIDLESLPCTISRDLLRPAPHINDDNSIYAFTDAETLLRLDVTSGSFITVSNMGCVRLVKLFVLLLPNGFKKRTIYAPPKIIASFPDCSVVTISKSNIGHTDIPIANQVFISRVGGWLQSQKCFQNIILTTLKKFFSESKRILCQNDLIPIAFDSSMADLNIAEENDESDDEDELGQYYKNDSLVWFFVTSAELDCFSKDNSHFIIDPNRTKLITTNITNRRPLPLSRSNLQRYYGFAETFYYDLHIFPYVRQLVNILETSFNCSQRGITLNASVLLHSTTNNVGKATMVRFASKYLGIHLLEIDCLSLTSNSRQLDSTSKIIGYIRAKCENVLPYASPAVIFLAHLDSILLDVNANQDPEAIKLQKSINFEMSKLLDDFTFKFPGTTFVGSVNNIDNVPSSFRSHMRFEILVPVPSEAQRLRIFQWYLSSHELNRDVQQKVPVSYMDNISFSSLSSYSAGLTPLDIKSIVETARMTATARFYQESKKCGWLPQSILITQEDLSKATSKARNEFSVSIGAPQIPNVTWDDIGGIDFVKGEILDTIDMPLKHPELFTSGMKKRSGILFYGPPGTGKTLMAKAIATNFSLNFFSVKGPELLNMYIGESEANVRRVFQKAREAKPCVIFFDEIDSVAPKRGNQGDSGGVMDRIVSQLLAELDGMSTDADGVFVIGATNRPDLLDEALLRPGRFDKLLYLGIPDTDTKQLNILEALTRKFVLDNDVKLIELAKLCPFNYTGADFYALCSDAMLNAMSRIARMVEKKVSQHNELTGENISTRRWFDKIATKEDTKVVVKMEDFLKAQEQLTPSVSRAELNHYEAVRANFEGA

## Nc1ncnc2c1ncn2[C@@H]1O[C@H](COP(=O)(O)OP(=O)(O)OP(=O)(O)O)[C@@H](O)[C@H]1O [ATP]
Pex1/ΔN1-Pex6
  enzyme-coupled ATPase assay: Pex1/ΔN1-Pex6 motor had ATPase activity comparable to WT Pex1/Pex6
[1]
  cryo-EM structure, ~4 Å D1, ~5-9 Å D2: we find density for nucleotide in all the D1 ATPase domains, which we modeled as ATP

## Pex1/Pex6 (Pex1-FLAG/His-Pex6) (Saccharomyces cerevisiae S288C)
[2]
  Km: 0.23 mM

## Pex1/Pex6 (Pex1-FLAG/His-Pex6) (Saccharomyces cerevisiae S288C; P24004:DEL941-967)
[2]
  Km: 1.03 mM

B1: Pex15 1-309 (cytosolic domain of Pex15) (domain or fragment, S. cerevisiae, UniProt Q08215 1-309, looked up)
chain: MAASEIMNNLPMHSLDSSLRDLLNDDLFIESDESTKSVNDQRSEVFQECVNLFIKRDIKDCLEKMSEVGFIDITVFKSNPMILDLFVSACDIMPSFTKLGLTLQSEILNIFTLDTPQCIETRKIILGDLSKLLVINKFFRCCIKVIQFNLTDHTEQEEKTLELESIMSDFIFVYITKMRTTIDVVGLQELIEIFIFQVKVKLHHKKPSPNMYWALCKTLPKLSPTLKGLYLSKDVSIEDAILNSIDNKIQKDKAKSKGKQRGVKQKIHHFHEPMLHNSSEEQVKVEDAFNQRTSTDSRLQSTGTAPRKK
notes: also called Pex15's cytosolic domain
His-Pex6
  binding result: binds

B2: Pex15 1-266 (domain or fragment, S. cerevisiae, UniProt Q08215 1-266, looked up)
chain: MAASEIMNNLPMHSLDSSLRDLLNDDLFIESDESTKSVNDQRSEVFQECVNLFIKRDIKDCLEKMSEVGFIDITVFKSNPMILDLFVSACDIMPSFTKLGLTLQSEILNIFTLDTPQCIETRKIILGDLSKLLVINKFFRCCIKVIQFNLTDHTEQEEKTLELESIMSDFIFVYITKMRTTIDVVGLQELIEIFIFQVKVKLHHKKPSPNMYWALCKTLPKLSPTLKGLYLSKDVSIEDAILNSIDNKIQKDKAKSKGKQRGVKQK
His-Pex6
  binding result: binds
